Test results as given in patent publication US20260265404A1 (FRED HUTCHINSON CANCER CENTER, published 2026).

Legend:
[1] = target: T1, human full-length CD33 (CD33^FL) (human, UniProt P20138 18-364); test: flow cytometry on REH subline expressing CD33^FL
T1 construct: also called Siglec-3

[2] = target: T1, human full-length CD33 (CD33^FL); test: flow cytometry on parental CD33+ ML-1 cells against ML-1 CD33 KO cells (endogenous CD33)

T1 sequence (P20138 18-364): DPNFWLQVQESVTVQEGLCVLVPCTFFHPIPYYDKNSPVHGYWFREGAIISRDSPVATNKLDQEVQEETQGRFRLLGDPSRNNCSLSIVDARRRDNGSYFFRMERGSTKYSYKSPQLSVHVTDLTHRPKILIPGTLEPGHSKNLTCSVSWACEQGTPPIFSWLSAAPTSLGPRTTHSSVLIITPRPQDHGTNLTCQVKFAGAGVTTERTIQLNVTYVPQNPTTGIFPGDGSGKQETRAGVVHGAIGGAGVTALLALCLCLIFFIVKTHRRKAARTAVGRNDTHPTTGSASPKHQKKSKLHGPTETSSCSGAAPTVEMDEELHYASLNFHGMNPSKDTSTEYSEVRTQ

| Binder | binding result [1] | binding result [2] |
| --- | --- | --- |
| 1H8 antibody (human CD33V-set antibody clone, hybridoma-derived) (antibody, V domains shown, also called clone 1H8) VH: QVQLVESGGGVVQPGGSLRLSCAASGFTFGSYGMHWVRQAPGKGLEWVAVIWYDGSNEYYADSVKGRFTVSRDNSKHTLYLQMNRLRAEDTAVYYCARDLDYDSSGGDYWGQGILVLVSS VL: EIVLTQSPDFQSVTPKEKVTITCRASQNIGGNLHWYQQKPDQSPKLLIRYATQPFSGVPSRFGGSGSGTDFTLTINSLEAEDAATYYCHQSSSLPLTFGGGTKVEIK | binds |  |
| 1H10 antibody (human CD33^PAN antibody clone, hybridoma-derived) (antibody, V domains shown, also called clone 1H10) VH: QVQLVQSGAEVKKPGASVKVSCKGSGYIFTSYDMHWVRQAPGQGLEWMGIIDPSGGSTSYAQKFQGRVTMTRDTSMSTVYMELSSLRSEDTAVYYCTRDYSWSYFDYWGQGTLVTVSS VL: AIQMTQSPSSLSASVGDRVTITCRASQGIRIYLGWYQQKPGKAPKLLIYATSSLQSGVPSRFSGSGSGTDFTLTISSLQPEDFATYYCLQDYNYPWTFGQGTKVEIK | binds |  |
| 1A9 antibody (human CD33^PAN antibody clone, hybridoma-derived) (antibody, V domains shown, also called clone 1A9) VH: EVQLVESGGGLVQPGGSLRLSCAASGFTFSIYDMHWVRQATGKGLEWVSAIGTAGDTYYAGSVKGRFTISRENAKNSLYLQMNSLRAGDTAVYYCAREYSGYYFDYWGQGTLVTVSS VL: AIQMTQSPSSLSASVGDRVTITCRASQDIRNDLGWYQQKPGKAPKILIYGASSLQSGVPSRFSGSGSGTDFTFTISSLQPEDFATYYCLQEYNYPCTFGQGTKLEIK |  | binds |
| 1E6 antibody (human CD33^PAN antibody clone, hybridoma-derived) (antibody, V domains shown, also called clone 1E6) VH: QVQLVESGGGVVQPGRSLRLSCAASGFTFSSYDIHWVRQAPGKGLEWVAVIWYDGSHNYYSDSVKGRFTISRDNSKNTLYLQMNSLRAEDTAVYYCARDYSGSYYDYWGQGTLVTVSS VL: AIQMTQSPSSLSASVGDRVTITCRASQGIRNDLGWYQQKPGKAPKLLIYAASNLQSGVPSRFSGSGSGTDFTLTISSLQPEDFATYYCLQDYSYPRTFGQGTKVEIK |  | binds |
| 1B9 antibody (human CD33^PAN antibody clone, hybridoma-derived) (antibody, V domains shown, also called clone 1B9) VH: QVQLVESGGGVVQPGRSLRLSCAASGFIFSSYDIHWVRQAPGKGLEWVAVIWYDGSHNYYSDSVKGRFTISRDNSKNTLYLQMNSLRAEDTAVYYCARDYSGSYFDYWGQGTLVTVSS VL: AIQMTQSPSSLSASVGDRVTITCRASQDIRNDLGWYLQRPGKAPKLLIYAASSLQSGVPSRFSGSGSGTDFTLTISSLQPEDFATYYCLQDYSYPRTFGQGTTVEIK |  | binds |
| 1D2 antibody (human CD33^PAN antibody clone, hybridoma-derived) (antibody, V domains shown, also called clone 1D2) VH: QVQLVESGGGVVQPGRSLRLSCAASGFTFSSYDIHWVRQAPGKGLEWVAVIWYDGSQKYYADSVKGRFTISRDNSKNTLYLQMNSLRAEDTAVYYCARDYSGSYYDYWGQGTLVTVSS VL: AIQMTQSPSSLSASVGDRVTITCRASQGIRNDLGWYQQKPGKAPELLIYATSSLQSGVPSRFSGSGSGTDFTLIISSLQPEDFATYYCLQDYSYPRTFGQGTKVEIK |  | binds |
| 2D3 antibody (human CD33V-set antibody clone, hybridoma-derived) (antibody, V domains shown, also called clone 2D3) VH: EVQLLESGGGLVQPGGSLSLSCAASGFTFSIYAMSWVRQAPGKGLEWVSAISDSGGTTYYADSVKGRFTISRDNSKNMLYLEMNSLRAEDTAIYYCAKRTRYFNGMDVWGQGTTVTVSS VL: EIVMTQSPATLSLSPGERATLSCRASQSGSSSFLSWYQQKPGQAPRLLIYGASTRATGIPARFSGSGSGTDFTLTISSLQPEDFAVYYCQQDYNLPFTFGPGTKVDIK | binds |  |
